According to PMC7940618, “Specific inhibition of the Survivin–CRM1 interaction by peptide-modified molecular tweezers” (Nature Communications, 2021):

Key:
[1] = biological target: T1, GST-Survivin120–CRM1 interaction (Homo sapiens, UniProt O15392); assay: Pull-down with GST-Survivin120 wildtype bait, CRM1 and RanQ69L; assay type: binding
T1 construct: the only published NMR structure originated from a truncated Survivin (aa 1-120) with improved solubility; made in house; host or cells: Escherichia coli soluBL21
Protocol: (§1) Next, we investigated whether tweezer inhibition of the export complex assembly is compromised upon lysine mutations near the NES. Therefore, pull-down experiments were performed with recombinant GST-tagged Survivin120 wildtype and K90/103T as bait proteins, tweezers, recombinant CRM1 and RanQ69L (Fig. 7g). Controls lacking the Survivin baits were included, as well as isolated peptides without tweezer (Fig. 7h). […] However, for the double lysine mutant GST-Survivin120-K90/103T even the tweezer conjugates lost most of their inhibitory power toward the essential Survivin–CRM1 interaction.
(§2) All pull-down assays were performed at room temperature in pull-down buffer (PBS, pH 7.4, 1 mM DTT, 0.02 Triton X-100). GST fusion proteins were immobilized on 50 μL GSH-coated Sepharose 4B beads from GE Healthcare. The beads were prior equilibrated and blocked with 500 μL pull-down blocking buffer (PBS, pH 7.4, 1 (w/v) BSA, 1 mM DTT, 0.02 (v/v) Triton X-100) for 1 h to prevent unspecific binding.
(§3) For analysis of the effective inhibitory tweezer concentration, 200 μg 293T lysate with overexpressed Survivin142-HA was preincubated without ligand or with different concentrations (10 nM to 200 μM) of unmodified tweezer TW, TW-ELTL, TW-ELTLGEFL, or TW-LFEEGLLT for 1 h and then mixed with 35 μg GST-CRM1, 55 μg RanQ69L, and 2 mM dGTP. GSH-beads were incubated with this protein mixture for 2 h under rotation. For analysis of tweezer specificity, 40 μg GST-Survivin120 or GST-Survivin120-K90/103T point mutant was pre-bound to equilibrated GSH-beads in 500 μL pull-down buffer, containing additionally either no ligand or 50 μM unmodified tweezer TW, TW-ELTL, TW-ELTLGEFL, or peptides ELTL and ELTLGEFL, for 1 h under rotation. After washing and blocking, GSH-beads were incubated with a protein mixture consisting of 2 mM dGTP, 50 μg CRM1, and 50 μg RanQ69L for 2 h under rotation.
(§4) Samples of input and beads taken during pull-down experiments were ran on 12.5 SDS gels and transferred onto 0.2 µM PVDF membranes (Amersham Hybond P 0.2) using a PerfectBlue™ tank electro blotter (Peqlab) at 350 mA for 150 min. Membranes were blocked for 1 h using 5% milk powder in TBS buffer containing 0.1% Tween-20. Next, membranes were incubated in primary antibodies against HA (anti-HA, mouse monoclonal, BioLegend, Covance MMS-101R, 1:1,000), GST (anti-GST, mouse monoclonal, Santa Cruz Biotechnology Inc., sc-57753, 1:1000) or CRM1 (anti-CRM1, rabbit polyclonal, Novus Biologicals Ltd., NB100-79802, 1:10,000) overnight at 4 °C. Secondary horseradish peroxidase (HRP)-conjugated antibody (anti-mouse IgG-HRP, sheep, GE Healthcare, NXA931 or anti-rabbit IgG-HRP, donkey, GE Healthcare, NA934) was then added (1:10,000) for 1 h at room temperature. Chemiluminescence was detected and imaged using the Pierce ECL Plus Western Blotting Substrate kit (Thermo Fisher Scientific) and Chemidoc system (Bio-Rad) or film processor Cawomat 2000 IR (CAWO). Western blots were analyzed by densitometric analysis with ImageJ version 1.52p (U.S. National Institutes of Health), measuring the mean gray intensity of protein bands. Uncropped and unprocessed scans of western blots are deposited in the Source Data file.

[2] = biological target: T2, GST-Survivin120-K90/103T–CRM1 interaction (Homo sapiens, UniProt O15392, K103T/K90T); assay: Pull-down with GST-Survivin120-K90/103T bait, CRM1 and RanQ69L; assay type: binding
T2 construct: the only published NMR structure originated from a truncated Survivin (aa 1-120) with improved solubility; made in house; host or cells: Escherichia coli soluBL21
Protocol: as §1, §2, §3, §4

[3] = CRM1 band, samples 22-28 (K90/103T)

T1 sequence (O15392 1-120): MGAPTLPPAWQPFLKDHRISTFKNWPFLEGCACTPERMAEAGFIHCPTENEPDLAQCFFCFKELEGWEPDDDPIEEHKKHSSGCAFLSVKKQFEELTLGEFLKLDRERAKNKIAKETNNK
T2 sequence (O15392 1-120 K90T/K103T): as the sequence (O15392 1-120) above, with K90T, K103T counted along it

With “ELTLGEFL peptide: isolated peptide ELTLGEFL without tweezer, pull-down control” the “CRM1: Peak area determined with ImageJ” value ([1]; CRM1 band, samples 15-21 (WT)) was 27360.9, the “CRM1 intensity_normalised on GST-Surv intensity (samples 1-14)” value ([1]; CRM1 band, samples 15-21 (WT)) was 0.3991 and the “CRM1: Control w/o GST-Survivin subtracted (sample 16 or 23)” value ([1]; CRM1 band, samples 15-21 (WT), sample 16 subtracted) was 22503.2. For the same sequence, the “GST-Surv: Peak area determined with ImageJ” value ([1]; GST-Surv bait band, samples 1-7 (WT according to the summary in r39-r41)) was 57214.6, the “GST-Surv: Control w/o GST-Survivin subtracted (sample 2 or 9)” value ([1]; GST-Surv bait band, samples 1-7 (WT), sample 2 subtracted) was 56379.3 and the “Normalised CRM1 intensity, summary of replicates I and II” value ([1]; WT, w/o tweezer = 100, replicates I and II) was 112.936%. The “CRM1 intensity_normalised on GST-Surv intensity (samples 1-14) and CRM1 intensity w/o incubation (sample 15 or 22)” value (“CRM1 intensity_normalised … (sample 15 or 22)” for short) ([1]; samples 15-21 (WT), fraction of sample 15 (w/o Tweezer)) was 1.129, the “CRM1 intensity_normalised … (sample 15 or 22)” value ([1]; samples 15-21 (WT), w/o Tweezer = 100) was 112.936% and the “CRM1: Peak area determined with ImageJ” value [2, 3] was 38827.8. The “CRM1 intensity_normalised on GST-Surv intensity (samples 1-14)” value [2, 3] was 0.485, the “CRM1: Control w/o GST-Survivin subtracted (sample 16 or 23)” value ([2]; CRM1 band, samples 22-28 (K90/103T), sample 23 subtracted) was 34118.6 and the “GST-Surv: Peak area determined with ImageJ” value ([2]; GST-Surv bait band, samples 8-14 (K90/103T according to the summary in r39-r41)) was 72953.9. The “GST-Surv: Control w/o GST-Survivin subtracted (sample 2 or 9)” value ([2]; GST-Surv bait band, samples 8-14 (K90/103T), sample 9 subtracted) was 70354.7, the “Normalised CRM1 intensity, summary of replicates I and II” value ([2]; K90/103T, w/o tweezer = 100, replicates I and II) was 76.5436% and the “CRM1 intensity_normalised … (sample 15 or 22)” value ([2]; samples 22-28 (K90/103T), fraction of sample 22 (w/o tweezer)) was 0.7654. For the same sequence, the “CRM1 intensity_normalised … (sample 15 or 22)” value ([2]; samples 22-28 (K90/103T), w/o tweezer = 100) was 76.5436%.
